Values of other authors, collected in PMC4449288.

Molecular target: mAKAPβ (Homo sapiens) (UniProt Q13023)
Assay: SPR

UniProt Q13023, sequence (Q13023 whole entry): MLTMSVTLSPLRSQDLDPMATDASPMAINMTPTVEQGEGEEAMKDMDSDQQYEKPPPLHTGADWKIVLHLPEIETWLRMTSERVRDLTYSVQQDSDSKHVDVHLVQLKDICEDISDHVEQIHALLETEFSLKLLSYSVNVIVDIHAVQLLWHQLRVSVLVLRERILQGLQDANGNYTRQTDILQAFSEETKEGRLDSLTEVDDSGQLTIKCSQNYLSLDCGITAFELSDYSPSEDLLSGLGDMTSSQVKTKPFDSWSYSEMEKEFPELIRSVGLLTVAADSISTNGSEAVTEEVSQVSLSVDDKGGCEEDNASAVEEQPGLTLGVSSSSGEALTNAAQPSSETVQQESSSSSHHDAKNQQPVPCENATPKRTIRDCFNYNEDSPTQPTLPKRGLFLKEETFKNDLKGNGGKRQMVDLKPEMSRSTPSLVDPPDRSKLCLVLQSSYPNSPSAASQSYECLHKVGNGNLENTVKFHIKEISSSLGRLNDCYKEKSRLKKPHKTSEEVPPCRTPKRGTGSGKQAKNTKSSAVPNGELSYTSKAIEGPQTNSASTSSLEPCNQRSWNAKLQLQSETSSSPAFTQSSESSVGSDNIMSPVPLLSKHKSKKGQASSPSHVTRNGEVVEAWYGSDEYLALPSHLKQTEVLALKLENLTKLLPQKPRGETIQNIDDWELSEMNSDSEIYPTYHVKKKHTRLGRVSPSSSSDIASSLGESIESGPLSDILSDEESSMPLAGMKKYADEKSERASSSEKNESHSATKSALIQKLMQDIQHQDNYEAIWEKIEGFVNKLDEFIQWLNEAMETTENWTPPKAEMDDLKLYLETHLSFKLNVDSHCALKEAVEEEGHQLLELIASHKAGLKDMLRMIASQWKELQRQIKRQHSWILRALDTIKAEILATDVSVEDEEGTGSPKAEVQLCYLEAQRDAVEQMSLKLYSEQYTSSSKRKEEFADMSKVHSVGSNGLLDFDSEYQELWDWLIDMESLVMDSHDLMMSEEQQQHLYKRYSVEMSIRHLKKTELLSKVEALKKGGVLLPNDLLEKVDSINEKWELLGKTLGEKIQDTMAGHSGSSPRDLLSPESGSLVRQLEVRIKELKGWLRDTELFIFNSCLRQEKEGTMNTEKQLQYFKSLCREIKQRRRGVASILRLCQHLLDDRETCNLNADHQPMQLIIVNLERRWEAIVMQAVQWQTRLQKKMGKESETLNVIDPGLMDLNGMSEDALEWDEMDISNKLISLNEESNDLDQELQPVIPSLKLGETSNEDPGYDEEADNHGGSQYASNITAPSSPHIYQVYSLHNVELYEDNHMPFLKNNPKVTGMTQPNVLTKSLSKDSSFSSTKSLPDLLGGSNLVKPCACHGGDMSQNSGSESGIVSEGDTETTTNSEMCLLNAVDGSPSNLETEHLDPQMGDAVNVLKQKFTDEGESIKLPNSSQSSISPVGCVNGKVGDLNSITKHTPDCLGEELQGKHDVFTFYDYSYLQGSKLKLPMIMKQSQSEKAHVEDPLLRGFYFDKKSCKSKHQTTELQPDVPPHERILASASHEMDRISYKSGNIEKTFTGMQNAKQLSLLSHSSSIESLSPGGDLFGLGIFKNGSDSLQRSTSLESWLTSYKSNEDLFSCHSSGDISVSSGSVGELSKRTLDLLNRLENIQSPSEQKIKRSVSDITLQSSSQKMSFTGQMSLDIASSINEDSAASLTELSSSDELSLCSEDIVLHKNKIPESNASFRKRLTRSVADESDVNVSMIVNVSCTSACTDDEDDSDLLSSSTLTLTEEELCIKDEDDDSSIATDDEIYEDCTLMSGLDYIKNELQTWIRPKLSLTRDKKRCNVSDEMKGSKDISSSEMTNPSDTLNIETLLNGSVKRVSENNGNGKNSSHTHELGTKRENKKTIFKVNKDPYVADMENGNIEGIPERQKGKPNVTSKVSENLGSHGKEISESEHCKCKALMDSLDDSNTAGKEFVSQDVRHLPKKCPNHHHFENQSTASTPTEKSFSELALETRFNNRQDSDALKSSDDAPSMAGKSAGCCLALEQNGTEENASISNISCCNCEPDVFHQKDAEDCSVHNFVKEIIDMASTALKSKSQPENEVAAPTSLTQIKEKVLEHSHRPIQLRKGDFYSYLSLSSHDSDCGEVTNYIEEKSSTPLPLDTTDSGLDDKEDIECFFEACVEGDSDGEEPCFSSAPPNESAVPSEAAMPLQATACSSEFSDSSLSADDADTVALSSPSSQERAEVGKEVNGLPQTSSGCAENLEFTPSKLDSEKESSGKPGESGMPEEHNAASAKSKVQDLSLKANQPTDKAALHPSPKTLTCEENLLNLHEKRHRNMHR

RSK3 (from UniProt Q15349)
Kd: 1.6 nM
